Reference: patent US20130251707A1

Biological target: human TNFR1-Fc (human) (UniProt P19438)
Experiment: quartz crystal microbalance, TNFR1-Fc immobilized

Sequence of human TNFR1-Fc (human) (P19438 29-211 limits assumed): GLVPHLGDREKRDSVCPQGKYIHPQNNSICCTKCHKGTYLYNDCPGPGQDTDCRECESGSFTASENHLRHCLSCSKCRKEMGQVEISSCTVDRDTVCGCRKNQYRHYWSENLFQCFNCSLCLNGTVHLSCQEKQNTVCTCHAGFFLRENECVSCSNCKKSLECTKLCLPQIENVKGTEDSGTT

Kd: 2.2 nM
fold reduced affinity (against ATROSAB and H398): 10 fold
koff: 0.00076 s⁻¹
kon: 350000 M⁻¹ s⁻¹
B1: scFv IZI-06.1 (scFv, V domains shown, part only)
VH: QVQLVQSGAEVKKPGSSVKVSCKASGYTFTDFYINWVRQAPGQGLEWIGEIYPYSGHAYYNEKFKARVTITADKSTSTAYMELSSLRSEDTAVYYCARWDFLDYWGQGTTVTVSS
VL: DIVMTQSPLSLPVTPGEPASISCRSSQSLLHSNGNTYLHWYLQKPGQSPQLLIYTVSNRFSGVPDRFSGSGSGTDFTLKISRVEAEDVGVYYCSQSTHVPYTFGGGTKVEIKR
modifications: linker and tags not stated
